Here are results for 1 molecule from publication PMC9076686, “Calcium bursts allow rapid reorganization of EFhD2/Swip-1 cross-linked actin networks in epithelial wound closure” (Nature Communications, 2022).

For test [1], the target named is T1, Actin from rabbit skeletal muscle (F-actin) (rabbit, UniProt P68135 1-377). The test is described as follows: co-sedimentation; high-speed pelleting at 200,000 x g, 4 °C, 1 h; 8 µM G-actin polymerised with increasing Swip-1 in 1x KMEI (10 mM imidazole pH 7.0, 50 mM KCl, 1 mM MgCl2, 1 mM EGTA) for 2 h at 4 °C; absence of calcium; fit to independent, identical binding sites. As to conditions: both partners purified.

Test [2] deals with T1, Actin from rabbit skeletal muscle …. Briefly: co-sedimentation; high-speed pelleting at 200,000 x g, 4 °C, 1 h; 8 µM G-actin polymerised with increasing Swip-1 in 1x KMI (10 mM imidazole pH 7.0, 50 mM KCl, 1 mM MgCl2) with 1 mM CaCl2 for 2 h at 4 °C; presence of calcium; fit to independent, identical binding sites. The following applies: both partners purified.

B1: Drosophila Swip-1 (EFhD2/Swip-1), recombinant wild type (natural protein)
chain: MSVSSNASSASNKDSVDSPSSTTNTDSSELTHILNRRQEIMESQEAGIEVRRTYKVVNVYTDFPEFSRNQIKDYQKTFNTYDTARDGFLDLQELKFMMEKLGAPQTHLGLKQMIAEVDEDNDGKISFREFLLIFRKAQAGELDSDSGLNQLARLTEVDVEQVGVSGAKNFFEAKIEQQLRTNKFHDEIRAEQEERRREEEERAQRRQQFQQRAAIFQ
notes: residues left after PreScission cleavage are not described; source: E. coli Rossetta 2, purified (glutathione agarose, GST cleaved by PreScission protease, size-exclusion chromatography)
As to B1, in test [1], the dissociation constant (Kd) (commonly a measure of binding affinity in units of concentration) stood at 4300 ± 1300 nM and the “stoichiometry N” value is ~1 Swip-1:actin. In test [2], the equilibrium dissociation constant (Kd) is 900 ± 100 nM and the “stoichiometry N” value was ~0.5 Swip-1:actin.
